According to article PMC2563962 (Structure (London, England : 1993), 2008):

Biological target: the molecule itself
Experiment: SEC

B1: SusD (residues 26-551) of Bacteroides thetaiotaomicron (domain or fragment, Bacteroides thetaiotaomicron ATCC 29148, UniProt Q8A1G2 26-551, looked up)
chain: INDLDISPIDPQTGGSFDQQGVFVKGYAMLGVTGQKGIDGSPDLDGQDEGESGFYRTTFNCNELPTDECLWAWQENQDIPQLTSISWSPSSQRTEWVYVRLGYDITQYNFFLDQTEGMTDAETLRQRAEIRFLRALHYWYFLDLFGKAPFKEHFSNDLPVEKKGTELYTYIQNELNEIEADMYEPRQAPFGRADKAANWLLRARLYLNAGVYTGQTDYAKAEEYASKVIGSAYKLCTNYSELFMADNDENENAMQEIILPIRQDGVKTRNYGGSTYLVCGTRVAGMPRMGTTNGWSCIFARAAMVQKFFSNLEDVPMLPADVEIPTKGLDTDEQIDAFDAEHGIRTEDMIKAAGDDRALLYSGVGGGRRKIQTDAISGFTDGLSIVKWQNYRSDGKPVSHATYPDTDIPLFRLAEAYLTRAEAIFRQGGDATGDINELRKRANCTRKVQTVTEQELIDEWAREFYLEGRRRSDLVRFGMFTTNKYLWDWKGGAMNGTSVASYYNKYPIPVSDINNNRNMSQNEGYK
stoichiometry N: 2
